Measured values taken from patent US20100028342A1.

Assays:
[1] = molecular target: recombinant extracellular portion of human IGF-IR (soluble IGF-IR) (human) (UniProt P08069); test: competition: cold IGF-II against radiolabeled IGF-I on immobilized IGF-IR; cold IGF-II as competitor
[2] = molecular target: recombinant extracellular portion of human IGF-IR (soluble IGF-IR) (human) (UniProt P08069); test: human IGF-IR-based ELISA, column Binding (ED50)
[3] = molecular target: recombinant extracellular portion of human IGF-IR (soluble IGF-IR) (human) (UniProt P08069); test: human IGF-IR binding ELISA, repeated with the same sample of A12
[4] = molecular target: recombinant extracellular portion of human IGF-IR (soluble IGF-IR) (human) (UniProt P08069); test: ligand blocking of IGF-I binding to IGF-IR, column Blocking (EC50)
[5] = molecular target: recombinant extracellular portion of human IGF-IR (soluble IGF-IR) (human) (UniProt P08069); test: competition: blocking of radiolabeled IGF-I binding to immobilized IGF-IR
[6] = molecular target: recombinant extracellular portion of human IGF-IR (soluble IGF-IR) (human) (UniProt P08069); test: BIAcore 3000, soluble IGF-IR immobilized on the sensor chip, full IgG in solution
[7] = molecular target: recombinant extracellular portion of human IGF-IR (soluble IGF-IR) (human) (UniProt P08069); test: ratio of plate binding: ED50 on human IGF-IR against the highest concentration tested on IR

Sequence of antibody A12 (fully human IgG1 anti-IGF-IR antibody) (VH): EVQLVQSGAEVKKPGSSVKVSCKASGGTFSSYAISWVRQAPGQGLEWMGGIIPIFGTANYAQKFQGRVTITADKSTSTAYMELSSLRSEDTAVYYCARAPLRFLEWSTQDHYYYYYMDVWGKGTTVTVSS
Sequence of antibody A12 (fully human IgG1 anti-IGF-IR antibody) (VL): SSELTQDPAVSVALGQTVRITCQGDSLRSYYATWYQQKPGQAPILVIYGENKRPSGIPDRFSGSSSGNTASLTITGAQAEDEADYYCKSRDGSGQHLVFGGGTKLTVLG

Row | Substance | IC50 [1] | EC50 [2] | EC50 [3] | EC50 [4] | IC50 [5] | Kd [6] | koff [6] | kon [6] | selectivity for IGF-IR in comparison to IR [7]
1 | IGF-II (from UniProt P01344 25-91) (ligand) | 6 nM | – | – | – | – | – | – | – | –
2 | antibody A12 (fully human IgG1 anti-IGF-IR antibody) | – | 0.3 nM | 0.3 to 0.5 nM | 0.6 to 1 nM | 1 nM | 0.041 nM | 3e-05 s⁻¹ | 720000 M⁻¹ s⁻¹ | > 3000 fold
